Measurements published in US20260193348A1 (ANTENGENE BIOLOGICS, published 2026).

Columns and labels:
GPRC5D on MM.1S cells [1] = biological target: T1, GPRC5D on MM.1S cells (human, UniProt Q9NZD1 1-345); assay: FACS on MM.1S cells
T1 construct: whole, on cells; MM.1S is called a GPRC5D positive expressed cell line and human multiple myeloma cells; also called G-protein coupled receptor family C group 5 member D
Method: The binding affinities of the generated humanized Fab-scFv-Fab bispecific antibodies were determined by FACS analysis. […] (a) Jurkat cells were washed by Staining Buffer (PBS+1% BSA) in round bottom 96-well plate. [0833] (b) Antibody dilutions and cells were added to each well, incubated at 4 degrees for 1 hour. [0834] (c) Cells were spined down at 300 g for 3 minutes, and the supernatants were discarded. [0835] (d) Cells were washed with Staining Buffer. […] (e) Step (d) was repeated and the cells were incubated for 0.5 hours at 4 degrees with secondary antibody in Staining Buffer. [0837] (f) After incubation, step (d)-(e) were repeated. […] (g) Staining Buffer was added and fluorescence signals were recorded by flow cytometry.
The binding affinities of the generated humanized Fab-scFv-Fab bispecific antibodies were determined by FACS analysis. The ATG-Bis-40E9 was used as positive control and hIgG1 isotype was used as negative control. The protocol for FACS analysis is identical to that described in Example 3.2, except that MM.1S cells were used in this example.

GPRC5D on MM.1S cells [2] = biological target: T1, GPRC5D on MM.1S cells; assay: cell-based or functional assay
GPRC5D on MM.1S cells [3] = biological target: T1, GPRC5D on MM.1S cells; assay: cell-based or functional assay; remark: listed apart in the source
[4] = biological target: T2, CD3 on T cells / Jurkat cells (human, UniProt P07766 23-207; P04234 22-171; P09693 23-182); assay: FACS on Jurkat cells
T2 construct: whole, on cells; Native CD3 complex on CD3+ T cells isolated from normal donors or on Jurkat cells; also called human CD3; CD3+ T cells
T2 sequence (P07766 23-207, chain 1 of 3): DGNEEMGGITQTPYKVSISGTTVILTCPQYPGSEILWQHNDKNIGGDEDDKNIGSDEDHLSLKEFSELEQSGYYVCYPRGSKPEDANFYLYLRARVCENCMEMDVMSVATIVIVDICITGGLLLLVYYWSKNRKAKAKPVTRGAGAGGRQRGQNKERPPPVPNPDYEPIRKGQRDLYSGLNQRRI
T2 sequence (P04234 22-171, chain 2 of 3): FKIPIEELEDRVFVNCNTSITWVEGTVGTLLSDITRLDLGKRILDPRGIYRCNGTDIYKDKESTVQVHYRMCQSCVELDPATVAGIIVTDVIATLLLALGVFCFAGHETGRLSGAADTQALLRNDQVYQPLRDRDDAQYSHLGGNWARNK
T2 sequence (P09693 23-182, chain 3 of 3): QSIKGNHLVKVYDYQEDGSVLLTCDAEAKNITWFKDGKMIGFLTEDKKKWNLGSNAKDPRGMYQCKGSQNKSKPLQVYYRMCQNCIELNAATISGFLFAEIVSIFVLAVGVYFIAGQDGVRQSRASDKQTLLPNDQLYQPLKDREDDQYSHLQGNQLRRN

T1 sequence (Q9NZD1 whole entry): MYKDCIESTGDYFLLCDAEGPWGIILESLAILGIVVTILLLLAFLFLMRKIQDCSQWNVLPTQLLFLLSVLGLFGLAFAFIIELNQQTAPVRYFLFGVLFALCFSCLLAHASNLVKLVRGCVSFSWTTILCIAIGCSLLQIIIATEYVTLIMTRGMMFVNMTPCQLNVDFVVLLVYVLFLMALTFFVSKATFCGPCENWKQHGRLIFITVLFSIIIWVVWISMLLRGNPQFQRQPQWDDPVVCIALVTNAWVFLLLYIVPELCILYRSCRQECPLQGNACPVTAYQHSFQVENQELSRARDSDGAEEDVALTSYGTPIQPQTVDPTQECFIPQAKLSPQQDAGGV

B1: Bis-108+ch147 (bispecific antibody)
heavy 1: not shown
heavy 2: EVQLVQSGAEVKKPGASVKVSCKASGYTFTSYVIHWVRQAPGQGLEWMGYFNPYNDGTKYNEEFKGRVTLTSDKSTSTAYMELRSLRSDDTAVYYCARGGVRRYFDVWGQGTTVTVSSASTKGPSVFPLAPSSKSTSGGTAALGCLVKDYFPEPVTVSWNSGALTSGVHTFPAVLQSSGLYSLSSVVTVPSSSLGTQTYICNVNHKPSNTKVDKKVEPKSCGGGGSGGGGSQVQLQQPGTELVKPGTSVKLSCKASGYTFTSYWMHWVKQRPGQCLEWIGNINPSNGATNYNEKFKSKATLTVDKSSSTAYMQLSSLTSEDSAVYYCARDRSSQYYFDYWGQGTTLTVSSGGGGSGGGGSGGGGSGGGGSDIVMSQSPSSLAVSAGEKVTMSCKSSQSLLNSRSRKNYLAWYQQKPGQSPKLLIYWASTRESGVPDRFTGSGSGTDFTLTISSVQAEDLAVYYCTQSYTLRTFGCGTKLEIKGGGGSGGGGSDKTHTCPPCPAPEAAGGPSVFLFPPKPKDTLMISRTPEVTCVVVDVSHEDPEVKFNWYVDGVEVHNAKTKPREEQYNSTYRVVSVLTVLHQDWLNGKEYKCKVSNKALPAPIEKTISKAKGQPREPQVCTLPPSREEMTKNQVSLSCAVKGFYPSDIAVEWESNGQPENNYKTTPPVLDSDGSFFLVSKLTVDKSRWQQGNVFSCSVMHEALHNHYTQKSLSLSPGK
light: DIQMTQSPSSLSASVGDRVTITCRASQDIGSNLNWLQQKPGKAIKRLIYATFGLDSGVPSRFSGSRSGTDFTLTISSLQPEDFATYYCQQYASFPYTFGGGTKVEIKRTVAAPSVFIFPPSDEQLKSGTASVVCLLNNFYPREAKVQWKVDNALQSGNSQESVTEQDSKDSTYSLSSTLTLSKADYEKHKVYACEVTHQGLSSPVTKSFNRGEC
notes: Fab-scFv-Fab format
GPRC5D on MM.1S cells [1]
  EC50: 2.61 nM
  Top signal: 2260 MFI
GPRC5D on MM.1S cells [2]
  IC50 of T-cell dependent cytotoxicity on MM.1S cells: 0.53 nM
  Top (%) target cell killing, MM.1S cells: 99.4%
GPRC5D on MM.1S cells [3]
  EC50, Jurkat-NFAT-Luciferase assay in the presence of MM.1S cells: 0.11 nM
  Top RLU, Jurkat-NFAT-Luciferase assay in the presence of MM.1S cells: 368 RLU

B2: Bis-108+147-R35S.L (bispecific antibody)
heavy 1: not shown
heavy 2: EVQLVQSGAEVKKPGASVKVSCKASGYTFTSYVIHWVRQAPGQGLEWMGYFNPYNDGTKYNEEFKGRVTLTSDKSTSTAYMELRSLRSDDTAVYYCARGGVRRYFDVWGQGTTVTVSSASTKGPSVFPLAPSSKSTSGGTAALGCLVKDYFPEPVTVSWNSGALTSGVHTFPAVLQSSGLYSLSSVVTVPSSSLGTQTYICNVNHKPSNTKVDKKVEPKSCGGGGSGGGGSEVQLVQSGAEVKKPGSSVKVSCKASGYTFTSYWMHWVRQAPGQCLEWMGNINPSSGATNYNEKFKSRVTLTVDKSTSTAYMELSSLRSEDTAVYYCARDRSSQYYFDYWGQGTTVTVSSGGGGSGGGGSGGGGSGGGGSDIVMTQSPDSLAVSLGERATINCKSSQSLLNSRSSKNYLAWYQQKPGQPPKLLIYWASTRESGVPDRFSGSGSGTDFTLTISSLQAEDVAVYYCTQSYTLRTFGCGTKVEIKGGGGSGGGGSDKTHTCPPCPAPEAAGGPSVFLFPPKPKDTLMISRTPEVTCVVVDVSHEDPEVKFNWYVDGVEVHNAKTKPREEQYNSTYRVVSVLTVLHQDWLNGKEYKCKVSNKALPAPIEKTISKAKGQPREPQVCTLPPSREEMTKNQVSLSCAVKGFYPSDIAVEWESNGQPENNYKTTPPVLDSDGSFFLVSKLTVDKSRWQQGNVFSCSVMHEALHNHYTQKSLSLSPGK
light: DIQMTQSPSSLSASVGDRVTITCRASQDIGSNLNWLQQKPGKAIKRLIYATFGLDSGVPSRFSGSRSGTDFTLTISSLQPEDFATYYCQQYASFPYTFGGGTKVEIKRTVAAPSVFIFPPSDEQLKSGTASVVCLLNNFYPREAKVQWKVDNALQSGNSQESVTEQDSKDSTYSLSSTLTLSKADYEKHKVYACEVTHQGLSSPVTKSFNRGEC
notes: Fab-scFv-Fab format
GPRC5D on MM.1S cells [1]
  EC50: 1.53 nM
  Top signal: 1860 MFI
GPRC5D on MM.1S cells [2]
  IC50 of T-cell dependent cytotoxicity on MM.1S cells: 1.64 nM
  Top (%) target cell killing, MM.1S cells: 102%
GPRC5D on MM.1S cells [3]
  EC50, Jurkat-NFAT-Luciferase assay in the presence of MM.1S cells: 1.87 nM
  Top RLU, Jurkat-NFAT-Luciferase assay in the presence of MM.1S cells: 344 RLU

B3: Bis-40E9-L2H3-D99E.H (bispecific antibody)
VH: EVQLVQSGAEVKKPGASVKVSCKASGYTFTSYVIHWVRQAPGQGLEWMGYFNPYNDGTKYNEEFKGRVTLTSDKSTSTAYMELRSLRSDDTAVYYCARGGVRRYFDVWGQGTTVTVSS
VL: DIQMTQSPSSLSASVGDRVTITCRASQDIGSNLNWLQQKPGKAIKRLIYATFGLDSGVPSRFSGSRSGTDFTLTISSLQPEDFATYYCQQYASFPYTFGGGTKVEIK
scFv: EVQLVQSGAEVKKPGSSVKVSCKASGYTFSSYVIHWVRQAPGQCLEWMGYINPYNDVIKYNEKFKGRVTLTSDKSTSTAYMELSSLRSEDTAVYYCARESYYSYDGFAYWGQGTLVTVSSGGGGSGGGGSGGGGSGGGGSEIVLTQSPDFQSVTPKEKVTITCSASSSVSYMHWYQQKPDQSPKRLIYDTSKLASGVPSRFSGSGSGTDFTLTINSLEAEDAATYYCQQWSSNPPTFGCGTKVEIK
notes: L234A/L235A
[4]
  binding result: binds

B4: Bis-40E9-L2H1 (bispecific antibody)
VH: EVQLVQSGAEVKKPGASVKVSCKASGYTFTSYVIHWVRQAPGQGLEWMGYFNPYNDGTKYNEEFKGRVTLTSDKSTSTAYMELRSLRSDDTAVYYCARGGVRRYFDVWGQGTTVTVSS
VL: DIQMTQSPSSLSASVGDRVTITCRASQDIGSNLNWLQQKPGKAIKRLIYATFGLDSGVPSRFSGSRSGTDFTLTISSLQPEDFATYYCQQYASFPYTFGGGTKVEIK
scFv: EVQLVQSGAEVKKPGSSVKVSCKASGGTFSSYVIHWVRQAPGQCLEWMGYINPYNDVIKYNEKFKGRVTITADKSTSTAYMELSSLRSEDTAVYYCARDSYYSYDGFAYWGQGTLVTVSSGGGGSGGGGSGGGGSGGGGSEIVLTQSPDFQSVTPKEKVTITCSASSSVSYMHWYQQKPDQSPKRLIYDTSKLASGVPSRFSGSGSGTDFTLTINSLEAEDAATYYCQQWSSNPPTFGCGTKVEIK
notes: Fab-scFv-Fab (2+1): two humanized anti-GPRC5D Fabs and one anti-CD3 scFv (VH-(GGGGS)4-VL) joined by (GGGGS)2 linkers to CH1 of one Fab and to CH2; L234A/L235A
[4]
  binding result: binds

B5: Bis-40E9-L2H3-D56G.H (bispecific antibody)
VH: EVQLVQSGAEVKKPGASVKVSCKASGYTFTSYVIHWVRQAPGQGLEWMGYFNPYNDGTKYNEEFKGRVTLTSDKSTSTAYMELRSLRSDDTAVYYCARGGVRRYFDVWGQGTTVTVSS
VL: DIQMTQSPSSLSASVGDRVTITCRASQDIGSNLNWLQQKPGKAIKRLIYATFGLDSGVPSRFSGSRSGTDFTLTISSLQPEDFATYYCQQYASFPYTFGGGTKVEIK
scFv: EVQLVQSGAEVKKPGSSVKVSCKASGYTFSSYVIHWVRQAPGQCLEWMGYINPYNGVIKYNEKFKGRVTLTSDKSTSTAYMELSSLRSEDTAVYYCARDSYYSYDGFAYWGQGTLVTVSSGGGGSGGGGSGGGGSGGGGSEIVLTQSPDFQSVTPKEKVTITCSASSSVSYMHWYQQKPDQSPKRLIYDTSKLASGVPSRFSGSGSGTDFTLTINSLEAEDAATYYCQQWSSNPPTFGCGTKVEIK
notes: L234A/L235A
[4]
  binding result: binds

B6: Bis-40E9-L2H3-G106A.H (bispecific antibody)
VH: EVQLVQSGAEVKKPGASVKVSCKASGYTFTSYVIHWVRQAPGQGLEWMGYFNPYNDGTKYNEEFKGRVTLTSDKSTSTAYMELRSLRSDDTAVYYCARGGVRRYFDVWGQGTTVTVSS
VL: DIQMTQSPSSLSASVGDRVTITCRASQDIGSNLNWLQQKPGKAIKRLIYATFGLDSGVPSRFSGSRSGTDFTLTISSLQPEDFATYYCQQYASFPYTFGGGTKVEIK
scFv: EVQLVQSGAEVKKPGSSVKVSCKASGYTFSSYVIHWVRQAPGQCLEWMGYINPYNDVIKYNEKFKGRVTLTSDKSTSTAYMELSSLRSEDTAVYYCARDSYYSYDAFAYWGQGTLVTVSSGGGGSGGGGSGGGGSGGGGSEIVLTQSPDFQSVTPKEKVTITCSASSSVSYMHWYQQKPDQSPKRLIYDTSKLASGVPSRFSGSGSGTDFTLTINSLEAEDAATYYCQQWSSNPPTFGCGTKVEIK
notes: L234A/L235A
[4]
  binding result: binds

B7: Bis-40E9-L2H4 (bispecific antibody)
VH: EVQLVQSGAEVKKPGASVKVSCKASGYTFTSYVIHWVRQAPGQGLEWMGYFNPYNDGTKYNEEFKGRVTLTSDKSTSTAYMELRSLRSDDTAVYYCARGGVRRYFDVWGQGTTVTVSS
VL: DIQMTQSPSSLSASVGDRVTITCRASQDIGSNLNWLQQKPGKAIKRLIYATFGLDSGVPSRFSGSRSGTDFTLTISSLQPEDFATYYCQQYASFPYTFGGGTKVEIK
scFv: EVQLVQSGAEVKKPGSSVKVSCKASGYTFSSYVIHWVRQAPGQCLEWIGYINPYNDVIKYNEKFKGRATLTSDKSTSTAYMELSSLRSEDTAVYYCARDSYYSYDGFAYWGQGTLVTVSSGGGGSGGGGSGGGGSGGGGSEIVLTQSPDFQSVTPKEKVTITCSASSSVSYMHWYQQKPDQSPKRLIYDTSKLASGVPSRFSGSGSGTDFTLTINSLEAEDAATYYCQQWSSNPPTFGCGTKVEIK
notes: L234A/L235A
[4]
  binding result: binds

B8: Bis-40E9-L3H1 (bispecific antibody)
VH: EVQLVQSGAEVKKPGASVKVSCKASGYTFTSYVIHWVRQAPGQGLEWMGYFNPYNDGTKYNEEFKGRVTLTSDKSTSTAYMELRSLRSDDTAVYYCARGGVRRYFDVWGQGTTVTVSS
VL: DIQMTQSPSSLSASVGDRVTITCRASQDIGSNLNWLQQKPGKAIKRLIYATFGLDSGVPSRFSGSRSGTDFTLTISSLQPEDFATYYCQQYASFPYTFGGGTKVEIK
scFv: EVQLVQSGAEVKKPGSSVKVSCKASGGTFSSYVIHWVRQAPGQCLEWMGYINPYNDVIKYNEKFKGRVTITADKSTSTAYMELSSLRSEDTAVYYCARDSYYSYDGFAYWGQGTLVTVSSGGGGSGGGGSGGGGSGGGGSEIVLTQSPDFQSVTPKEKVTITCSASSSVSYMHWYQQKPDQSPKRWIYDTSKLASGVPSRFSGSGSGTDYTLTINSLEAEDAATYYCQQWSSNPPTFGCGTKVEIK
notes: L234A/L235A
[4]
  binding result: binds
